{
  "source": "patent US20240150495A1",
  "about": "(F STAR BIOTECHNOLOGISCHE FORSCHUNGS UND ENTWICKLUNGSGES M B …, published 2024)",
  "binders": {"B1": {"name": "human ανβ3 integrin (Chemicon) (receptor)", "chain 1": "FNLDVDSPAEYSGPEGSYFGFAVDFFVPSASSRMFLLVGAPKANTTQPGIVEGGQVLKCDWSSTRRCQPIEFDATGNRDYAKDDPLEFKSHQWFGASVRSKQDKILACAPLYHWRTEMKQEREPVGTCFLQDGTKTVEYAPCRSQDIDADGQGFCQGGFSIDFTKADRVLLGGPGSFYWQGQLISDQVAEIVSKYDPNVYSIKYNNQLATRTAQAIFDDSYLGYSVAVGDFNGDGIDDFVSGVPRAARTLGMVYIYDGKNMSSLYNFTGEQMAAYFGFSVAATDINGDDYADVFIGAPLFMDRGSDGKLQEVGQVSVSLQRASGDFQTTKLNGFEVFARFGSAIAPLGDLDQDGFNDIAIAAPYGGEDKKGIVYIFNGRSTGLNAVPSQILEGQWAARSMPPSFGYSMKGATDIDKNGYPDLIVGAFGVDRAILYRARPVITVNAGLEVYPSILNQDNKTCSLPGTALKVSCFNVRFCLKADGKGVLPRKLNFQVELLLDKLKQKGAIRRALFLYSRSPSHSKNMTISRGGLMQCEELIAYLRDESEFRDKLTPITIFMEYRLDYRTAADTTGLQPILNQFTPANISRQAHILLDCGEDNVCKPKLEVSVDSDQKKIYIGDDNPLTLIVKAQNQGEGAYEAELIVSIPLQADFIGVVRNNEALARLSCAFKTENQTRQVVCDLGNPMKAGTQLLAGLRFSVHQQSEMDTSVKFDLQIQSSNLFDKVSPVVSHKVDLAVLAAVEIRGVSSPDHVFLPIPNWEHKENPETEEDVGPVVQHIYELRNNGPSSFSKAMLHLQWPYKYNNNTLLYILHYDIDGPMNCTSDMEINPLRIKISSLQTTEKNDTVAGQGERDHLITKRDLALSEGDIHTLGCGVAQCLKIVCQVGRLDRGKSAILYVKSLLWTETFMNKENQNHSYSLKSSASFNVIEFPYKNLPIEDITNSTLVTTNVTWGIQPAPMPVPVWVIILAVLAGLLLLAVLVFVMYRMGFFKRVRPPQEEQEREQLQPHENGEGNSET", "chain 2": "GPNICTTRGVSSCQQCLAVSPMCAWCSDEALPLGSPRCDLKENLLKDNCAPESIEFPVSEARVLEDRPLSDKGSGDSSQVTQVSPQRIALRLRPDDSKNFSIQVRQVEDYPVDIYYLMDLSYSMKDDLWSIQNLGTKLATQMRKLTSNLRIGFGAFVDKPVSPYMYISPPEALENPCYDMKTTCLPMFGYKHVLTLTDQVTRFNEEVKKQSVSRNRDAPEGGFDAIMQATVCDEKIGWRNDASHLLVFTTDAKTHIALDGRLAGIVQPNDGQCHVGSDNHYSASTTMDYPSLGLMTEKLSQKNINLIFAVTENVVNLYQNYSELIPGTTVGVLSMDSSNVLQLIVDAYGKIRSKVELEVRDLPEELSLSFNATCLNNEVIPGLKSCMGLKIGDTVSFSIEAKVRGCPQEKEKSFTIKPVGFKDSLIVQVTFDCDCACQAQAEPNSHRCNNGNGTFECGVCRCGPGWLGSQCECSEEDYRPSQQDECSPREGQPVCSQRGECLCGQCVCHSSDFGKITGKYCECDDFSCVRYKGEMCSGHGQCSCGDCLCDSDWTGYYCNCTTRTDTCMSSNGLLCSGRGKCECGSCVCIQPGSYGDTCEKCPTCPDACTFKKECVECKKFDRGALHDENTCNRYCRDEIESVKELKDTGKDAVNCTYKNEDDCVVRFQYYEDSSGKSILYVVEEPECPKGPDILVVLLSVMGAILLIGLAALLIWKLLITIHDRKEFAKFEEERARAKWDTANNPLYKEATSTFTNITYRGT", "notes": "Bought from Chemicon; coated at 1 ug/ml on Maxisorp plates; also called alpha-v beta-3 integrin"}},
  "biological_target": "T1, Fcab-wt (human, UniProt P01857-1 99-330 = IgG part)",
  "T1 construct": "Negative control",
  "assay": "ELISA on coated human ανβ3 integrin, HRP labelled protein A",
  "protocol": "For the integrin ELISA, 1 ug/ml human ανβ3 integrin in PBS was coated over night on Maxisorp plates and blocked for 1 h with BSA in PBS containing 1 mM Ca2+. […] Bound Fcabs were detected by HRP labelled protein A and TMB as a substrate.",
  "data": [
    {"binder": "B1", "values": [
      {"measurement": "binding result", "result": "no binding (tested: 10 ug/ml)"}
    ]}
  ]
}
